Experimental data published in US20160159929A1 (ABLBIO, published 2016).
Blank lines part the entries; values can stand above or below the binder they belong to.

How the values were obtained:
[1] = target: T1, human DLL4 (27-251)-Fc alanine substitution mutant at position 64 (histidine) (human, UniProt Q9NR61 27-251); assay: Western blot of mutant DLL4 (27-251)-Fc, detected with HRP anti-human Fab
T1 construct: range 27-251; also called amino acid mutant at position 64; not shown: Fc protein
Method: The mutant expression media incubated for 4 days were centrifuged at 1000 rpm at room temperature for 10 minutes to remove the suspended material, and then filtered through a 0.45-μm syringe. For Western blotting analysis, the level of the protein in the mutant expression media were quantified using Octet® system (ForteBio) so that a uniform amount of the mutant would be loaded on SDS gel. Next, 20 μl of each of the mutant expression media was loaded on each of two Novex 4-12% Bis/Tris gels, and subjected to gel electrophoresis using MOPS buffer at 140 V for 50 minutes. As a control, a protein encoding a deletion fragment (amino acid residues 27 to 251) of the extracellular domain of wild-type DLL4 was used. After completion of the electrophoresis, the protein band was transferred to a polyvinylidene difluoride membrane. A total of two processes were performed.

[2] = target: T2, human VEGF (hVEGF, R&D Systems, cat: 293-VE) (human, UniProt P15692-4 27-191); assay: SPR (Biacore T200), hVEGF immobilised on CM5, antibody as analyte, bivalent binding model
T2 construct: Bought protein; also called vascular endothelial growth factor
Method: (§1) Specifically, Biacore T200 was used in SPR analysis and HBS-EP (10 mM HEPES, pH7.4, 150 mM NaCl, 3 mM EDTA, […] surfactant P20) was used as a running buffer. Surface preparation was done by using a surface preparation target immobilization tool of a wizard program (condition: 25° C., 5 μl/min). Ligands (hVEGF and hDLL4) were diluted in 10 mM sodium acetate buffer (pH 4.5) to final concentrations of 5 μg/ml and 4 μg/ml, respectively, and then immobilized to the surface of CM5 chip by a target immobilization level for each test group. In the immobilization process, two flow cells were included as one set wherein the first and third flow cells were set as a blank, the second flow cell has hVEGF immobilized to the surface thereof, and the fourth flow cell was set as hDLL4 in the present experiment. The first and third flow cells acted as a reference to account for experimental variability due to nonspecific bindings and buffer effects, and in the analysis, subtracted RU values (Fc2−Fc1, and Fc4−Fc3) were used as experimental results. The Avastin-DLL4 BsAb dual-targeting antibody that binds to hVEGF and hDLL4 was diluted in a running buffer to a final molar concentration of 100 nM, serially diluted 1/2 times, and each of the 5 dilutions was analyzed. The sample to be analyzed was prepared to have high purity and high concentration, enough to be diluted more than 100 times at minimum, thereby minimizing buffer effect. All analysis was done by using a wizard program, screening duplicates for each sample and a regeneration step was included in between each analysis step, so that the standard of experiment remains constant.
(§2) The experimental results were analyzed by Biaevaluation software version 4.0. At this time, to determine the RU values (Fc2−Fc1 and Fc4−Fc3), the baseline was set to zero, the value measured at a buffer injection part (analyte, 0 nM) was subtracted from a whole sensorgram. Then, the resulting RU value was analyzed by a Bivalent binding model to determine a binding affinity. The factors to be analyzed include kₐ (M⁻¹s⁻¹), kd (s⁻¹), and KD (M).

[3] = target: T3, human DLL4 protein (R&D Systems, Cat: 1506-D4/CF), extracellular domain, residues 27 to 524, C-terminal … (human, UniProt Q9NR61 27-524); assay: competition ELISA: antibody premixed with human DLL4-His (600 ng/ml), transferred to plate-coated hNotch-1-hFc, bound DLL4 detected with anti-His HRP
T3 construct: range 27-524; Bought protein; also called rhDLL4; hDLL4
Method: The neutralization effect of the Avastin-DLL4 BsAb dual-targeting antibody was assessed using an ELISA-based solution competition assay. Specifically, each well of a 96-well microtiter plate (Nunc-Immuno Plate, NUNC, Rochester, N.Y.) was coated with 100 μl of 500 ng/ml of hNotch-1-hFc protein (R&D Systems) (diluted in PBS) at 4° C. overnight, and then treated with BSA for 2 hours to block non-specific binding sites.
The Avastin-DLL4 BsAb dual-targeting antibody (purified protein) on the 96-well microtiter plate was premixed with serial dilutions of antigen protein (human DLL4-His, 600 ng/ml) at an […] concentration ranging from 0 nM to 140 nM. The antigen/antibody mixture was incubated for 30 minutes, and then transferred to a microtiter plate precoated with the DLL4 receptor hNotch-1 protein (50 ng/well) in order to measure free […]. Then, the plate was incubated for 2 hours and washed five times with 0.05% tween 20-containing PBS. In order to detect the DLL4 antigen bound to the plate, an HRP-conjugated His […] antibody reagent (Roche applied science) was diluted at a ratio of 1:800, and the washed microtiter plate was treated with the diluted antibody reagent, and then allowed to react at 37° C. for 1 hour. […]

[4] = target: T3, human DLL4 protein (R&D Systems, Cat: …); assay: SPR (Biacore T200), hDLL4 immobilised on CM5, antibody as analyte, bivalent binding model
Method: as §1, §2

[5] = target: T3, human DLL4 protein (R&D Systems, Cat: …); assay: ELISA on plate-coated rhDLL4, HRP anti-Fab detection, absorbance at 450 nm; the value is column C (midpoint) of the printed 4-P fit; preparation labelled Transient; the Conc axis prints no unit, nM is taken from paragraph 139
Method: (§3) The binding affinities of the dual-targeting proteins for DLL4 and VEGF were assessed using an ELISA-based solution competition assay. Specifically, a 96-well plate (Nunc-Immuno Plate, NUNC, Rochester, N.Y.) was coated with 50 ng/ml of hVEGF (R&D Systems, cat: 293-VE) and 200 ng/ml of rhDLL4 (R&D Systems, cat: 1506-D4/CF) in an amount of 100 μl per well at 4° C. overnight, and non-specific binding sites were blocked with BSA (bovine serum albumin) for 2 hours. The antibody on the 96-well microtiter plate was diluted 1/5-fold from 128 nM and 64 nM, and 100 μl of each of the dilutions was added to each well of the plate coated with hDLL4 and hVEGF proteins. Then, the plate was incubated for 2 hours, and washed five times with 0.05% tween 20-containing PBS. In order to detect the plate-bound antibody, an HRP-conjugated anti-Fab antibody (Pierce, cat: 31414)) was diluted at a ratio of 1:40,000, transferred to the washed 96-well microtiter plate, and then allowed to react at 37° C. for 1 hour. After the reaction, color development was performed using a colorimetric substrate (3,3′,5,5′-tetramethylbenzidine; Sigma-Aldrich). The enzymatic reaction was stopped using 0.5 mol/l of sulfuric acid. The absorbance at 450 nm was measured using SpectraMax 190 (molecular device).

[6] = target: T2, human VEGF (hVEGF, R&D Systems, cat: …); assay: ELISA on plate-coated hVEGF, HRP anti-Fab detection, absorbance at 450 nm; the value is column C (midpoint) of the printed 4-P fit y = (A - D)/(1 + (x/C)^B) + D; preparation labelled Transient; the Conc axis prints no unit, nM is taken from paragraph 139 (dilutions from 128 nM and 64 nM)
Method: as §3

[7] = target: T2, human VEGF (hVEGF, R&D Systems, cat: …); assay: ELISA on plate-coated hVEGF, HRP anti-Fab detection, absorbance at 450 nm; the value is column C (midpoint) of the printed 4-P fit; preparation labelled (GS pool) cell line; the Conc axis prints no unit, nM is taken from paragraph 139
Method: as §3

[8] = target: T3, human DLL4 protein (R&D Systems, Cat: …); assay: ELISA on plate-coated rhDLL4, HRP anti-Fab detection, absorbance at 450 nm; the value is column C (midpoint) of the printed 4-P fit; preparation labelled (GS pool) cell line; the Conc axis prints no unit, nM is taken from paragraph 139
Method: as §3

T2 sequence (P15692 other isoform, or with tags, fused parts or gaps limits assumed): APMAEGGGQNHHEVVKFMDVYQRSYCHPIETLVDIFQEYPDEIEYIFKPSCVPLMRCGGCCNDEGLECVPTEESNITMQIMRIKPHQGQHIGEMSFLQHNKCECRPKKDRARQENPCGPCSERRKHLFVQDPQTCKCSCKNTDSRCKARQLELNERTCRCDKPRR
T3 sequence (Q9NR61 other isoform, or with tags, fused parts or gaps limits assumed): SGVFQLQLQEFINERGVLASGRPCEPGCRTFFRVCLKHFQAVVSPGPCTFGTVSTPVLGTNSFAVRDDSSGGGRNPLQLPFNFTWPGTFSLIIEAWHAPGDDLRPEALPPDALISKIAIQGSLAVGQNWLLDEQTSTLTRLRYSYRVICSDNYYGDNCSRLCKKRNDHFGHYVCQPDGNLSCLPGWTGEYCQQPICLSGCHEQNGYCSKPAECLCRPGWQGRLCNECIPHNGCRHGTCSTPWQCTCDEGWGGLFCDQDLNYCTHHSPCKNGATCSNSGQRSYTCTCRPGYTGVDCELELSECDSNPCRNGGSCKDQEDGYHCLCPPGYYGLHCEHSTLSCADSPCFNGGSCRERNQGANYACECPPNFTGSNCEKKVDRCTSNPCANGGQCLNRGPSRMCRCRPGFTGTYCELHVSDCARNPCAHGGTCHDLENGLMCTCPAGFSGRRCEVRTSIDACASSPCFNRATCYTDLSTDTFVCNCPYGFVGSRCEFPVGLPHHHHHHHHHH
T1 sequence (Q9NR61 other isoform, or with tags, fused parts or gaps mutant limits assumed): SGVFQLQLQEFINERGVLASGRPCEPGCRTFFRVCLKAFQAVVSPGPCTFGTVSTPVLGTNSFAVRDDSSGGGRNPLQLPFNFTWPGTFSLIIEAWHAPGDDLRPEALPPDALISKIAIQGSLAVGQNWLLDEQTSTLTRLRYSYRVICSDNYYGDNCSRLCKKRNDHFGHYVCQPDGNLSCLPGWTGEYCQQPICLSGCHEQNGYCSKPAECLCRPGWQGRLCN

binding result [1]: no binding (tested: 1 µg/mL)
B1: MLCK-2 anti-DLL4 antibody (antibody, V domains shown)
VH: EVQLLESGGGLVQPGGSLRLSCAASGFTFSDYAMSWVRQAPGKCLEWVSWIYSGSGNKYYADSVKGRFTISRDNSKNTLYLQMNSLRAEDTAVYYCARADWPFDYWGQGTLVTVSS
VL: QSVLTQPPSASGTPGQRVTISCTGSSSNIGSNDVTWYQQLPGTAPKLLIYADSKRPSGVPDRFSGSKSGTSASLAISGLRSEDEADYYCGTWDYSLSAYVFGCGTKLTVL
notes: also called MLCK2 antibody

Kd [2]: 0.126 nM
koff [2]: 1.68e-06 s⁻¹
kon [2]: 13400 M⁻¹ s⁻¹
IC50 [3]: 1.12 nM
Kd [4]: 30.2 nM
koff [4]: 0.000587 s⁻¹
kon [4]: 19400 M⁻¹ s⁻¹
EC50 [5]: 0.264 nM
EC50 [6]: 0.337 nM
EC50 [7]: 0.43 nM
EC50 [8]: 0.261 nM
B2: Avastin-DLL4 BsAb dual-targeting antibody (bispecific antibody)
heavy: EVQLVESGGGLVQPGGSLRLSCAASGYTFTNYGMNWVRQAPGKGLEWVGWINTYTGEPTYAADFKRRFTFSLDTSKSTAYLQMNSLRAEDTAVYYCAKYPHYYGSSHWYFDVWGQGTLVTVSSASTKGPSVFPLAPSSKSTSGGTAALGCLVKDVFPEPVTVSWNSGALTSGVHTFPAVLQSSGLYSLSSVVTVPSSSLGTQTYICNVNHKPSNTKVDKKVEPKSCDKTHTCPPCPAPELLGGPSYFLFPPKPKDTLMISRTPEVTCVVVDVSHEDPEVKFNWYVDGVEVHNAKTKPREEQYNSTYRVVSVLTVLHQDWLNGKEYKCKVSNKALPAPIEKTISKAKGQPREPQVYTLPPSRHMTKNQVSLTCLVKGFYPSDIAVEWESNGQPENNYKTTPPVLDSDGSFFLYSKLTVDKSRWQQGNVFSCSVMHEALHNHYTQKSLSLSPGKGGGGSGGGGSGGGGSQSVLTQPPSASGTPGQRVTISCTGSSSNIGSNDVTWYQQLPGTAPKLLIYADSKRPSGVPDRFSGSKSGTSASLAISGLRSEDEADYYCGTWDYSLSAYVFGCGTKLTVLGGGGSGGGGSGGGGSGGGGSEVQLLESGGGLVQPGGSLRLSCAASGFTFSDYAMSWVRQAPGKCLEWVSWIYSGSGNKYYADSVKGRFTISRDNSKNTLYLQMNSLRAEDTAVYYCARADWPFDYWGQGTLVTVSS
light: not shown
notes: made in CHO cells; also called VEGF-DLL4 BsAb; dual-targeting protein
